# PMC3315321
# T1: RIG-I (human, UniProt O95786 1-925)
# T1 sequence: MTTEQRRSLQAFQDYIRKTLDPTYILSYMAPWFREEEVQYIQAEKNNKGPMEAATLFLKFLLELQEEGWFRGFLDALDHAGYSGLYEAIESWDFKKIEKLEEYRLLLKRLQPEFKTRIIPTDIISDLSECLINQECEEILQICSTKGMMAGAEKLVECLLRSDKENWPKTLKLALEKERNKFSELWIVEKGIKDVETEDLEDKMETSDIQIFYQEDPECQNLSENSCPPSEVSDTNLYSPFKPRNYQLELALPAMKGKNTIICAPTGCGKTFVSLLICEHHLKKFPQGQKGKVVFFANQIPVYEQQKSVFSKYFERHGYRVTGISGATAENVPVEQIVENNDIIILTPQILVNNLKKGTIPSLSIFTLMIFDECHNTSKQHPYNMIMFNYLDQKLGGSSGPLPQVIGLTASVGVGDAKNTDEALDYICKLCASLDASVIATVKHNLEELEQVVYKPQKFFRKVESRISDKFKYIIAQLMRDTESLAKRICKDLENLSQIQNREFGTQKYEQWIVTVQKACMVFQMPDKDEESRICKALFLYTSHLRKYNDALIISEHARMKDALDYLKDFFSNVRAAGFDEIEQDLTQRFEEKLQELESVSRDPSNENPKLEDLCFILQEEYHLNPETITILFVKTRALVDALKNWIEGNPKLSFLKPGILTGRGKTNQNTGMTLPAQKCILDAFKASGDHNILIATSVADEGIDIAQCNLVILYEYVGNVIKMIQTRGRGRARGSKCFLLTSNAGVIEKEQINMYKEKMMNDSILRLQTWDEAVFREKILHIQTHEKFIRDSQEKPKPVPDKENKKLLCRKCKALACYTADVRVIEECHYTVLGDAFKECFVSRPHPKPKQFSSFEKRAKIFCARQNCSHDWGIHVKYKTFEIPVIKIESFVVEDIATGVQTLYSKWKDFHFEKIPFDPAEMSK
# B1: CL9 (AP-treated) (XNA)
# RNA: GGGAGAGCGGAAGCGUGCUGGGCCACCAUCCGUAACUAGCUAAUACUUGUUAUCUUUUUAUUUUCAUAACCCAGAGGUCGAUGGAUCCCCCC
# modifications: 2'-F U and 2'-F C (all)
# Molecular target: T1, RIG-I
# Assay: filter binding
binder,measurement,value
B1,Kd,37.2 nM
